Our source for the stoichiometry N values is article PMC10320017.

The experiment concerns the target SARS-CoV-1 S/native spike ectodomain (with C-terminal foldon and His tag) (SARS coronavirus Tor2 (SARS-CoV-1)). The experiment in a line: negative-stain EM.

In turn, “SARS-CoV-1 S/native spike ectodomain (with C-terminal foldon and His tag) (domain or fragment)” returned a stoichiometry N of 3.

As a reminder, the stoichiometry N is the number of molecules, sites or subunits per partner or assembly.
